From patent US20160271244A1 (DUKE UNIVERSITY, published 2016)

Columns and labels:
A244gD+ gp120 [1] = biological target: T1, A244gD+ gp120 (herpes simplex virus; HIV-1); test: SPR
HV00044 (6240 TZ5 140C) = biological target: T2, HV00044 (6240 TZ5 140C) (HIV-1); test: SPR
T2 construct: domain: gp140; also called 624008 TA5 gp140; 6240 transmitted founder Env

A244gD- gp120 = biological target: T3, A244gD- gp120 (HIV-1); test: SPR
T3 construct: domain: gp120

MN gp120 = biological target: T4, MN gp120 (HIV-1, UniProt P05877 32-513); test: ELISA
T4 construct: domain: gp120

A244gD+ gp120 [2] = biological target: T1, A244gD+ gp120; test: ELISA on monomeric Env
CM 243 gp120 = biological target: T5, CM 243 gp120 (HIV-1); test: ELISA on monomeric Env
T5 construct: domain: gp120; also called gp120 CM243

HV00046 (902114 B2 140C) = biological target: T6, HV00046 (902114 B2 140C) (HIV-1); test: ELISA on monomeric Env
T6 construct: domain: gp140

[3] = biological target: Env (gp120) of HIV-1 isolate Q23.17 (HIV-1); test: cell-based or functional assay
[4] = biological target: Env (gp120) of HIV-1 Q23.17.N160K (HIV-1); test: cell-based or functional assay
[5] = biological target: Env (gp120) of HIV-1 isolate JRCSF (HIV-1, UniProt P20871 32-848); test: cell-based or functional assay
[6] = biological target: Env (gp120) of HIV-1 isolate JRFL (virus) (HIV-1); test: cell-based or functional assay
[7] = biological target: Env (gp120) of HIV-1 JRFL.E168K (HIV-1); test: cell-based or functional assay
[8] = biological target: Env (gp120) of HIV-1 JRFL.N160K.E168K (HIV-1); test: cell-based or functional assay
[9] = biological target: Env (gp120) of HIV-1 isolate 7165.18 (HIV-1); test: cell-based or functional assay
[10] = biological target: Env (gp120) of HIV-1 7165.18.N160K (HIV-1); test: cell-based or functional assay
SSA [11] = test: Athena autoantigen assay, mAb 25 ug/ml
SSB [12] = test: Athena autoantigen assay, mAb 25 ug/ml
Sm [13] = test: Athena autoantigen assay, mAb 25 ug/ml
RNP [14] = test: Athena autoantigen assay, mAb 25 ug/ml
Scl 70 [15] = test: Athena autoantigen assay, mAb 25 ug/ml
Jo 1 [16] = test: Athena autoantigen assay, mAb 25 ug/ml
Cent B [17] = biological target: T7, Cent B; test: Athena autoantigen assay, mAb 25 ug/ml
T7 construct: also called centromere B

Histone [18] = test: Athena autoantigen assay, mAb 25 ug/ml
SSA [19] = test: Athena autoantigen assay, mAb 12.5 ug/ml
SSB [20] = test: Athena autoantigen assay, mAb 12.5 ug/ml
Sm [21] = test: Athena autoantigen assay, mAb 12.5 ug/ml
RNP [22] = test: Athena autoantigen assay, mAb 12.5 ug/ml
Scl 70 [23] = test: Athena autoantigen assay, mAb 12.5 ug/ml
Jo 1 [24] = test: Athena autoantigen assay, mAb 12.5 ug/ml
Cent B [25] = biological target: T7, Cent B; test: Athena autoantigen assay, mAb 12.5 ug/ml
Histone [26] = test: Athena autoantigen assay, mAb 12.5 ug/ml
SSA [27] = test: Athena autoantigen assay, mAb 6.25 ug/ml
SSB [28] = test: Athena autoantigen assay, mAb 6.25 ug/ml
Sm [29] = test: Athena autoantigen assay, mAb 6.25 ug/ml
RNP [30] = test: Athena autoantigen assay, mAb 6.25 ug/ml
Scl 70 [31] = test: Athena autoantigen assay, mAb 6.25 ug/ml
Jo 1 [32] = test: Athena autoantigen assay, mAb 6.25 ug/ml
Cent B [33] = biological target: T7, Cent B; test: Athena autoantigen assay, mAb 6.25 ug/ml
Histone [34] = test: Athena autoantigen assay, mAb 6.25 ug/ml

Chain of SSB (P05455 whole entry): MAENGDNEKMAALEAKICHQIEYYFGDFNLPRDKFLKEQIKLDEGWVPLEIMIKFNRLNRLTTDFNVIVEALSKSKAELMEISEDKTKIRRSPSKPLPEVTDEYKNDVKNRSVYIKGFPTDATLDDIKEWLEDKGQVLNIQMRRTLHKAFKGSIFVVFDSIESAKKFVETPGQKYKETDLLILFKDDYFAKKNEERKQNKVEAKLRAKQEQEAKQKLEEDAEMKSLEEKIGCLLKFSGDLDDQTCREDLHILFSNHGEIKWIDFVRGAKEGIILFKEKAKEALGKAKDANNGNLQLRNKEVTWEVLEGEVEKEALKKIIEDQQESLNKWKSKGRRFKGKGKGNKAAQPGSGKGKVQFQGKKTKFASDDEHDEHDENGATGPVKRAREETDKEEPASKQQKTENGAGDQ
T7 sequence (P07199 2-599): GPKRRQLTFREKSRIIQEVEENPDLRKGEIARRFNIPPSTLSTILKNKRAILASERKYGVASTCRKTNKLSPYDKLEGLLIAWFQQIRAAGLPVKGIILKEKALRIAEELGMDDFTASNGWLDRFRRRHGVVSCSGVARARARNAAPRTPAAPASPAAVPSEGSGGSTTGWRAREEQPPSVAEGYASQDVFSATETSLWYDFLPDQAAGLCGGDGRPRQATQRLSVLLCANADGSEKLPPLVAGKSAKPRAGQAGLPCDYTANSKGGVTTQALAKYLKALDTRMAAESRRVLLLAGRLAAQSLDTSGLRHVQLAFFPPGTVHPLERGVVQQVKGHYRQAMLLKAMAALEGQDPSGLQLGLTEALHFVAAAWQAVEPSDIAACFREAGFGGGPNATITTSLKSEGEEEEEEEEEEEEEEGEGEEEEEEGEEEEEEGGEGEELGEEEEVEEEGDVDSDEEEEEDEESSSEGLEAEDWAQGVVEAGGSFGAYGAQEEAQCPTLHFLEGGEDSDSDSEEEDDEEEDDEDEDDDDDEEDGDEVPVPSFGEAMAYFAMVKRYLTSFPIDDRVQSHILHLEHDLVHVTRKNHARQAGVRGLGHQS
Chain of Jo 1 (P12081 2-509): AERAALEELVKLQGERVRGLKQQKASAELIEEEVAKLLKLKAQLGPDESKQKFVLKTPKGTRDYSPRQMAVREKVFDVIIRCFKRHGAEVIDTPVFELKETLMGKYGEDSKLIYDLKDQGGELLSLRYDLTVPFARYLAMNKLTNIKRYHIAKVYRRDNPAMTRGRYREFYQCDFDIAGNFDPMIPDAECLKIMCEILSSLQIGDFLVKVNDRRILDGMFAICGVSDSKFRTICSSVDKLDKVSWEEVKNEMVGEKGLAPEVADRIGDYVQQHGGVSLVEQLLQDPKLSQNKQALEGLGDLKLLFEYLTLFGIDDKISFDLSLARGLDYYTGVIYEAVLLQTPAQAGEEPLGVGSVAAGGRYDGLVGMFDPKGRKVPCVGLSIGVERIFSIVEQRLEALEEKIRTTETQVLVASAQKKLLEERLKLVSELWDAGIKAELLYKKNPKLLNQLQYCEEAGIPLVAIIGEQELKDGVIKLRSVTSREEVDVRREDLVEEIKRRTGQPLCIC

B1: CH01 (antibody, V domains shown)
VH: EVQLVESGANVVRPGGSLRLSCKASGFIFENFGFSWVRQAPGKGLQWVAGLNWNGGDTRYADSVKGRFRMSRDNSRNFVYLDMDKVGVDDTAFYYCARGTDYTIDDAGIHYQGSGTFWYFDLWGRGTLVSVSS
VL: EIVLTQSPGTLSLSPGERATLSCRASHNVHPKYFAWYQQKPGQSPRLLIYGGSTRAAGIPGKFSGSGSGTDFTLTISRVDPEDFAVYYCQQYGGSPYTFGQGTKVEI
notes: also called 1-27-G2; 27G2
Kd (A244gD+ gp120 [1]): 0.0088 µM | Kd (HV00044 (6240 TZ5 140C)): 0.3 µM | Kd (A244gD- gp120): 0.34 µM | binding result (MN gp120): no binding | EC50 (A244gD+ gp120 [2]): 7.8 µM | EC50 (CM 243 gp120): 12.7 µM | EC50 (HV00046 (902114 B2 140C)): 63.2 µM | IC50 (virus neutralization) [3]: 0.014 µg/mL | IC80 (virus neutralization) [3]: 0.035 µg/mL | IC50 (virus neutralization) [4]: > 50 µg/mL | IC80 (virus neutralization) [4]: > 50 µg/mL | IC50 (virus neutralization) [5]: 0.07 µg/mL | IC80 (virus neutralization) [5]: > 50 µg/mL | IC50 (virus neutralization) [6]: > 50 µg/mL | IC80 (virus neutralization) [6]: > 50 µg/mL | IC50 (virus neutralization) [7]: 0.044 µg/mL | IC80 (virus neutralization) [7]: 0.382 µg/mL | IC50 (virus neutralization) [8]: > 50 µg/mL | IC80 (virus neutralization) [8]: > 50 µg/mL | IC50 (virus neutralization) [9]: 5.82 µg/mL | IC80 (virus neutralization) [9]: > 50 µg/mL | IC50 (virus neutralization) [10]: > 50 µg/mL | IC80 (virus neutralization) [10]: > 50 µg/mL | Athena autoreactivity score (SSA [11]): 6.5 | Athena autoreactivity score (SSB [12]): 5.5 | Athena autoreactivity score (Sm [13]): 4 | Athena autoreactivity score (RNP [14]): 5.5 | Athena autoreactivity score (Scl 70 [15]): 3 | Athena autoreactivity score (Jo 1 [16]): 2.5 | Athena autoreactivity score (Cent B [17]): 14 | Athena autoreactivity score (Histone [18]): 17.5 | Athena autoreactivity score (SSA [19]): 5 | Athena autoreactivity score (SSB [20]): 5 | Athena autoreactivity score (Sm [21]): 3 | Athena autoreactivity score (RNP [22]): 4.5 | Athena autoreactivity score (Scl 70 [23]): 2 | Athena autoreactivity score (Jo 1 [24]): 2 | Athena autoreactivity score (Cent B [25]): 10 | Athena autoreactivity score (Histone [26]): 13.5 | Athena autoreactivity score (SSA [27]): 5.5 | Athena autoreactivity score (SSB [28]): 5.5 | Athena autoreactivity score (Sm [29]): 2.5 | Athena autoreactivity score (RNP [30]): 4 | Athena autoreactivity score (Scl 70 [31]): 1.5 | Athena autoreactivity score (Jo 1 [32]): 2 | Athena autoreactivity score (Cent B [33]): 7 | Athena autoreactivity score (Histone [34]): 10
